# Assay results: the supplement of paper PMC9942255
# “And” between values parts separate entries of the source, which are not always exact repeats. Identical values can stand only once.
# System: Bacillus subtilis DB104 (SP-AmyQ fusion secretion)
# Assay: AmyQ secretion efficiency, weighted average sort bin (1 = best secretion, 10 = worst) (bin number (weighted average, 1-10)); higher = lower secretion efficiency
# Summary of the method: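 Designed signal peptides were fused to mature AmyQ and expressed from the amyE locus in B. subtilis DB104, and this library was loaded at about 0.3 cells per ~65 nL alginate bead together with fluorescein-starch. After about 13 h of growth at room temperature and nile red staining, occupied beads were split into 10 equally populated bins by green/red fluorescence ratio using large-particle flow cytometry. Amplicons from every bin were Illumina-sequenced. The secretion score is the average bin number weighted by read frequency and normalised to beads per bin, excluding low-abundance sequences.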
row,Sequence,AmyQ secretion efficiency
1,MKKQIITATTAVVLGSTLFAGAVSAQSI,1.69
2,MRKKRRRVITCVMAASLTLGSLLPAGYATAKED,3.9
3,MTKKAWFLPLVCVLLISGWLAPAASKSAQTT,4.7
4,MPIKKKVMMCLAVTLVFGSMSFPTLTNDGGFKE,5.45
5,MRKKLKWLSFLLGFIILLFLFFFIALIVLAKYQFSNNDS,6.41
6,MHLIRAAGAVCLAVVLIAGCRFNEDQHQAEWENT,6.12
7,MTKWIVLFLVLIAAAISIFVYVSTGSEK,2.48
8,MKLKKRVSMFLVALTMCGGLFVTPVKAVKT,2.64
9,MKNMSCKLVVSVTLFFSFLTIGPLAHNQNS,5.52
10,MHLIRAAGAVCLAVVLIAGCRFGSIIVSAEGENT,5.81
11,MKVCQKSIVRFKRRKRRGTFVISVPFMANAQSD,7.96
12,MKKRRAIIIAIIAAVIVIAALITFNVRNASPG,5.35
13,MIVIRKRKISIIVFLSVIQPQPS,5.82
14,MMTAIIIAIIAAVIVIAALITFNVRNASPG,6.42
15,MKKKRRKLALTAAAGLGLTALHSAPAAKAAPL,2.69
16,MRKKRVITCVMAASLTLGSLLPAGYATAATP,2.04
17,MLKRTSFVSLFISSAVLLSILLPSGQAHAQSA,1.67
18,MIAYFGKCLLLVTIMFLGVLFGMPQANHG,5
19,MKKTIMSFVAVAALSTTAFGAHASYKEI,7
20,MKKIGLLFMLCLAALFTIGFPAQQLDAAEA,2.04
21,MKKRRRRIAMLILAGIALFVFISPLKSHKT,6.26
22,MRHKIITFILAVVVIIIIGNMIGGGGGSEATSE,3.29
23,MNLRKILLSSALSLGMLPSAAPVLATSS,2.71
24,MNLRKILLSSALSLGMLKRKAPVLATSS,7.26

row,Sequence,AmyQ secretion efficiency
1,MKKRFFGPIILAFILFLFSSLAGAIAIPS,6.16
2,MGSTWSLIVCLTALLSVLLVAGSVPFHAEAKKP,4.11
3,MNIKKFAKQATVLTFTTALLAGGATQAFAKET,3.3
4,MKRLLVSLRVWMVFLMNWVTPDRKTAAAAVY,6.49
5,MKLKKRFLVALTMCGGLFVTPAKAVKT,7.15
6,MKRMIVRMTLPLLIVCLAFSSFSASARAEEE,3.68
7,MRPVFPLILSAVLFLSCFFGARQTEFSASKR,7.3
8,MIVIILLFISIIVFLSVIQPQPS,8.27 and 5.9 and 6.5
9,MMIKQCVICLSLLVFGTRRKAHAEET,7.59
10,MTTKFKKKRRFLLCFMPAAKIEHTQASLL,7.76
11,MKRLFMKLLTTTASLVLFAVVFVFAVKGAPAKAETH,2.87
12,MRGKSAVLLSLIMLIAGFLIYFSFQM,8.11
13,MLMLLSTLLIGIMLLTFAPSAFAKQD,4.38
14,MKKSQYFIVFICFFVLFSVHPIAAAFADS,5.18
15,MKKRKRRNFKRFIAAFLVLALMIDVLAKST,7.65
16,MKLAKRVSALTPSTTLAITMKAKEL,6.37
17,MFNRLFRVCFLAALIMAFTLPNSVYYQKP,6.22
18,MKGWMRTTLVVLFTIVTFGLVSPPAALMADKP,7.14
19,MRFTKVVGFLSVLGLAAVFPLTSQAEKA,4.09
20,MKRLFMKASLVLFAVVFVFAVKGAPAKAATH,1.71
21,MLTKRLLTIYIMLLGLIFLVALAWFPGAAQAEEK,4.8
22,MKIRKILLSSALSFGMLKKRRKKALAAGT,6.86
23,MKTLRTLCVLMILSGVIFFGLKIDADDD,6.82
24,MRSYIKVLTMCFLGLILFVFTALADNS,7.29

row,Sequence,AmyQ secretion efficiency
1,MKKRLIGFLVLVPALIMSGITLKEANKK,6.33
2,MKRTWNVCLTALLSVLLVAGSVPFHVEAKKP,2
3,MLKKKWMVGLLAGCLAAGGFSYNAFTTEN,6.95
4,MRKKLKWLSFLLGFIILLFLFKKRKKRFSNNDS,7.3
5,MKKRKRRNFKRQGTQYKGLALMISLVPADVLAKST,7.46
6,MKKIWIGMLAAAVLLLMVPKVMLADAA,4.26
7,MKKVLMAFIICLSLILSVLAAPPSGNKAESV,4.42
8,MKKGIIRFLLVSFVLFFALSTGITGVQLAPA,5.59
9,MFKKHTISLLIIFLLASAVLAKPCEAHTV,2.62
10,MNKFLKSNFRFLLAAALGISLLASSNFIKASND,4.18 and 4.22 and 2.8
11,MKKVLMAFIICLSLILSVLAAPPSGGKAESV,5
12,MAIIIAIIAAVIVIAALITFNVGNASPG,5.7
13,MGSGTSMLFSTLALAAGMTAAAAGGAGTIHAQQP,2.01
14,MKKAFLVFLSVVLVTTVFLVKQQESVAQNKQL,2.89
15,MKKKKRRIVSILFMFGLVMGFSQFQPSTVFAADK,3.29
16,MTMLRKIIGWILLLCIIPLFAFTVIASLKEV,3.47
17,MKRFLIGAGVAAVILSGWFIADHQKHSQEM,5.36
18,MKRMIVRMTTPLLIVCLAFSSFSASARAASE,2.03
19,MKKKQVMLALTAAAGLGLTALHSAPADKAAPL,5.48
20,MKKWMITIAMLKKAGIALFVFISPLKSHKT,6.51
21,MGLGGKLSVAVAASFMSLSISLPGVQAAEG,1.01
22,MKRKRFLIGAGVAAVILSGWFIADHQTHSQEM,5.04
23,MGLGKKLSVAVAASFMSLSISLPGVQARKR,6.96
24,MRNLTKTSLLLAGLCTAAQMVFVTHASAATD,2.35

row,Sequence,AmyQ secretion efficiency
1,MKKGIIRTFFLLVSFVLFFALSTGITGVQAAPA,2.73
2,MPYRKRRRVLLLLVTGLFMSLFAVTATASAQTG,1.13
3,MRMLWRSLALCGLALTLAPCAQCAEP,3.11
4,MNKPTKLFSTLALAAAAAAGGAGTIHAQQP,1.43
5,MKSRTIWTIILGALLVCSAASSCIAVAYTLTKSQAGASSS,6.64
6,MKRIRIPMTLALGAALTIAPLSFASCEEN,4.65
7,MFQFAITLSVLCALILLVPTLLVIPFQHNKEAGASV,6.31
8,MRMLWRSLALCGLALTLAKRRCAQAAEP,6.64
9,MTKKAWFLPLVCVLLIVIALIFSFASGWLAPAASASAQTT,2.12
10,MKKKLAAGLTASAIVGTTLVVTPAEKATI,7.23
11,MKLSVKIAGVLTVAAAAMEEKMYATAKGN,7.66
12,MKKIVSILFMFGLVMSIISLGFSQFQPSTVFAADK,2.96
13,MRSYIKVLTMCFLGLILFVPTALKDNS,7.49
14,MKSKGSIMACLILFSFTITTFINTETISNFSN,7.44
15,MRPVFPGKGQYVLFLSCFFGARQTEASASKR,6.9
16,MLKRTSFVSSSFISSAVLLSILLPSGQAHAQSA,2.16
17,MKKQIITATTAVVLGSTLFAGAASAEEE,2.04
18,MKKKQVMLALTAAAGLGLTALHSAPAQKAAPL,5.43
19,MKRLLSTLLIGIMLLTFAPSVFAKQD,1.93
20,MMKCVICLSLLVFGTTAAHAEET,3.1
21,MKVLLSALLLLLFAFEPSCSGKKL,5.53
